These results are taken from article PMC13397619.

To fix the notation:
B1: NLV2 TCR alpha chain (CDR3α only) (parent)
chain: AGPMKTSYDKVI

This assay covers variants of B1. Put plainly: T-Switch: Jurkat TCRβ−/− cells expressing a CDR3 saturation-mutagenesis library, stained with two peptide-HLA-A*02:01 tetramers (original and novel peptide) plus anti-CD3, FACS-sorted into four gates, gDNA sequenced. The following applies: tetramers 1 µg/mL, 30 min on ice, SP, DP and SW gates expanded about 10 days between rounds ('two to three rounds of selection' in the Methods), unresolved parent, parent is a CDR3 fragment, scale: fold enrichment, numbering: sequential-on-construct, sequence starts at 1.

The mark [1] stands for this setting: with both tetramers (double-negative gate, binds neither): HLA-A*02:01 with … and with …, gate DN: OPPOSITE: higher = more of the variant in the gate that binds neither peptide = LESS binding (or no expression; inferred). Fold enrichment of the CDR3 variant in one FACS gate of a two-tetram.
[2] abbreviates: with both tetramers (double-positive gate): HLA-A*02:01 with … and with …, gate DP: higher = more of the variant in the gate that binds both peptides. Fold enrichment of the CDR3 variant in one FACS gate of a two-tetramer stain. SP/DP/SW gates were expanded and re-sorted bef.

Consider […] (CDR3 as printed); T6G derived by comparing it with the table's wild-type CDR3 AGPMKTSYDKVI, for which the enrichment runs as follows: under setting [1], 1.02; under setting [2], 0.

On to […] (CDR3 as printed); P3N derived by comparing it with the table's wild-type CDR3 AGPMKTSYDKVI, for which the enrichment under setting [1] came out at 1.07 and the enrichment under setting [2] amounted to 0.

[…] (CDR3 as printed); M4N derived by comparing it with the table's wild-type CDR3 AGPMKTSYDKVI: the enrichment reads like this: under setting [1], 0.728; under setting [2], 0.

In the case of […] (CDR3 as printed); M4K derived by comparing it with the table's wild-type CDR3 AGPMKTSYDKVI, the enrichment reads like this: under setting [1], 0.454; under setting [2], 0.

In the case of […] (CDR3 as printed); V11R derived by comparing it with the table's wild-type CDR3 AGPMKTSYDKVI, the enrichment reads like this: under setting [1], 1.26; under setting [2], 0.

For the variant […] (CDR3 as printed); S7W derived by comparing it with the table's wild-type CDR3 AGPMKTSYDKVI, the enrichment amounted to 0.807 under setting [1] and 0 under setting [2].

As to […] (CDR3 as printed); T6H derived by comparing it with the table's wild-type CDR3 AGPMKTSYDKVI, the enrichment under setting [1] came to 1.22 and the enrichment under setting [2] amounted to 0.

For […] (CDR3 as printed); V11W derived by comparing it with the table's wild-type CDR3 AGPMKTSYDKVI, the enrichment by setting is: under setting [1], 0.939; under setting [2], 0.

On to […] (CDR3 as printed); Y8V derived by comparing it with the table's wild-type CDR3 AGPMKTSYDKVI, for which the enrichment worked out at 1.48 under setting [1] and 0 under setting [2].

Take […] (CDR3 as printed); Y8M derived by comparing it with the table's wild-type CDR3 AGPMKTSYDKVI: the enrichment runs as follows: under setting [1], 1.1; under setting [2], 0.

[…] (CDR3 as printed); S7G derived by comparing it with the table's wild-type CDR3 AGPMKTSYDKVI: the enrichment reads like this: under setting [1], 0.911; under setting [2], 0.

Consider […] (CDR3 as printed); M4V derived by comparing it with the table's wild-type CDR3 AGPMKTSYDKVI, for which the enrichment reads like this: under setting [1], 0.322; under setting [2], 0.

Consider […] (CDR3 as printed); S7Q derived by comparing it with the table's wild-type CDR3 AGPMKTSYDKVI, for which the enrichment under setting [1] was determined as 0.986 and the enrichment under setting [2] amounted to 0.

In the case of […] (CDR3 as printed); T6C derived by comparing it with the table's wild-type CDR3 AGPMKTSYDKVI, the enrichment was determined as 0.924 under setting [1] and 0 under setting [2].

Take […] (CDR3 as printed); T6N derived by comparing it with the table's wild-type CDR3 AGPMKTSYDKVI: the enrichment under setting [1] is 0.879 and the enrichment under setting [2] came out at 0.

As to […] (CDR3 as printed); Y8E derived by comparing it with the table's wild-type CDR3 AGPMKTSYDKVI, the enrichment came to 0.485 under setting [1] and 3.54 under setting [2].

In the case of […] (CDR3 as printed); Y8D derived by comparing it with the table's wild-type CDR3 AGPMKTSYDKVI, the enrichment came out at 0.393 under setting [1] and 40.5 under setting [2].

[…] (CDR3 as printed); V11P derived by comparing it with the table's wild-type CDR3 AGPMKTSYDKVI: the enrichment reads like this: under setting [1], 0.923; under setting [2], 0.

As for […] (CDR3 as printed); P3K derived by comparing it with the table's wild-type CDR3 AGPMKTSYDKVI, the enrichment is, setting by setting: under setting [1], 1.01; under setting [2], 0.

Turning to […] (CDR3 as printed); T6A derived by comparing it with the table's wild-type CDR3 AGPMKTSYDKVI, the enrichment by setting is: under setting [1], 0.82; under setting [2], 0.

In the case of […] (CDR3 as printed); T6M derived by comparing it with the table's wild-type CDR3 AGPMKTSYDKVI, the enrichment reads like this: under setting [1], 1.45; under setting [2], 0.

On to […] (CDR3 as printed); P3T derived by comparing it with the table's wild-type CDR3 AGPMKTSYDKVI, for which the enrichment was 0.962 under setting [1] and 0 under setting [2].

With […] (CDR3 as printed); M4S derived by comparing it with the table's wild-type CDR3 AGPMKTSYDKVI, the enrichment under setting [1] stood at 0.52 and the enrichment under setting [2] was 0.

As for […] (CDR3 as printed); S7K derived by comparing it with the table's wild-type CDR3 AGPMKTSYDKVI, the enrichment under setting [1] came to 1.32 and the enrichment under setting [2] came to 0.

For […] (CDR3 as printed); S7I derived by comparing it with the table's wild-type CDR3 AGPMKTSYDKVI, the enrichment under setting [1] was 1.04 and the enrichment under setting [2] amounted to 0.

In the case of […] (CDR3 as printed); V11A derived by comparing it with the table's wild-type CDR3 AGPMKTSYDKVI, the enrichment under setting [1] turned out to be 1.13 and the enrichment under setting [2] amounted to 0.

Take […] (CDR3 as printed); V11I derived by comparing it with the table's wild-type CDR3 AGPMKTSYDKVI: the enrichment under setting [1] was 0.74 and the enrichment under setting [2] stood at 0.

Take […] (CDR3 as printed); P3G derived by comparing it with the table's wild-type CDR3 AGPMKTSYDKVI: the enrichment reads like this: under setting [1], 1; under setting [2], 0.

As to […] (CDR3 as printed); Y8P derived by comparing it with the table's wild-type CDR3 AGPMKTSYDKVI, the enrichment is, setting by setting: under setting [1], 1.08; under setting [2], 0.

Regarding […] (CDR3 as printed); Y8K derived by comparing it with the table's wild-type CDR3 AGPMKTSYDKVI, the enrichment is, setting by setting: under setting [1], 0.928; under setting [2], 0.

As to […] (CDR3 as printed); V11F derived by comparing it with the table's wild-type CDR3 AGPMKTSYDKVI, the enrichment is 1.29 under setting [1] and 0 under setting [2].

Take […] (CDR3 as printed); S7T derived by comparing it with the table's wild-type CDR3 AGPMKTSYDKVI: the enrichment is 0.968 under setting [1] and 0 under setting [2].

For the variant […] (CDR3 as printed); T6E derived by comparing it with the table's wild-type CDR3 AGPMKTSYDKVI, the enrichment under setting [1] is 1.78 and the enrichment under setting [2] amounted to 0.

For the variant […] (CDR3 as printed); M4Y derived by comparing it with the table's wild-type CDR3 AGPMKTSYDKVI, the enrichment reads like this: under setting [1], 1.15; under setting [2], 0.

On to […] (CDR3 as printed); P3M derived by comparing it with the table's wild-type CDR3 AGPMKTSYDKVI, for which the enrichment came out at 1.17 under setting [1] and 0 under setting [2].

Consider […] (CDR3 as printed); S7M derived by comparing it with the table's wild-type CDR3 AGPMKTSYDKVI, for which the enrichment by setting is: under setting [1], 1.3; under setting [2], 0.

On to […] (CDR3 as printed); P3E derived by comparing it with the table's wild-type CDR3 AGPMKTSYDKVI, for which the enrichment under setting [1] was 1.15 and the enrichment under setting [2] was 0.

For […] (CDR3 as printed); T6V derived by comparing it with the table's wild-type CDR3 AGPMKTSYDKVI, the enrichment by setting is: under setting [1], 0.56; under setting [2], 0.

Take […] (CDR3 as printed); Y8W derived by comparing it with the table's wild-type CDR3 AGPMKTSYDKVI: the enrichment under setting [1] worked out at 1.01 and the enrichment under setting [2] was 0.

For the variant […] (CDR3 as printed); S7C derived by comparing it with the table's wild-type CDR3 AGPMKTSYDKVI, the enrichment runs as follows: under setting [1], 0.877; under setting [2], 0.

[…] (CDR3 as printed); V11K derived by comparing it with the table's wild-type CDR3 AGPMKTSYDKVI: the enrichment came to 1.49 under setting [1] and 0 under setting [2].

Take […] (CDR3 as printed); V11H derived by comparing it with the table's wild-type CDR3 AGPMKTSYDKVI: the enrichment runs as follows: under setting [1], 0.891; under setting [2], 0.

As for […] (CDR3 as printed); S7H derived by comparing it with the table's wild-type CDR3 AGPMKTSYDKVI, the enrichment was 0.722 under setting [1] and 0 under setting [2].

Turning to […] (CDR3 as printed); P3H derived by comparing it with the table's wild-type CDR3 AGPMKTSYDKVI, the enrichment under setting [1] stood at 0.96 and the enrichment under setting [2] is 0.

On to […] (CDR3 as printed); T6R derived by comparing it with the table's wild-type CDR3 AGPMKTSYDKVI, for which the enrichment is, setting by setting: under setting [1], 0.792; under setting [2], 0.

As for […] (CDR3 as printed); P3F derived by comparing it with the table's wild-type CDR3 AGPMKTSYDKVI, the enrichment under setting [1] is 1.32 and the enrichment under setting [2] was 0.

Consider […] (CDR3 as printed); M4L derived by comparing it with the table's wild-type CDR3 AGPMKTSYDKVI, for which the enrichment worked out at 0.995 under setting [1] and 0 under setting [2].

As for […] (CDR3 as printed); T6W derived by comparing it with the table's wild-type CDR3 AGPMKTSYDKVI, the enrichment is, setting by setting: under setting [1], 1.07; under setting [2], 0.

[…] (CDR3 as printed); V11Q derived by comparing it with the table's wild-type CDR3 AGPMKTSYDKVI: the enrichment by setting is: under setting [1], 1.35; under setting [2], 0.

With […] (CDR3 as printed); T6I derived by comparing it with the table's wild-type CDR3 AGPMKTSYDKVI, the enrichment under setting [1] is 0.515 and the enrichment under setting [2] was 0.

With […] (CDR3 as printed); V11N derived by comparing it with the table's wild-type CDR3 AGPMKTSYDKVI, the enrichment is 1.11 under setting [1] and 0 under setting [2].

For the variant […] (CDR3 as printed); P3S derived by comparing it with the table's wild-type CDR3 AGPMKTSYDKVI, the enrichment amounted to 1.18 under setting [1] and 0 under setting [2].

For […] (CDR3 as printed); P3D derived by comparing it with the table's wild-type CDR3 AGPMKTSYDKVI, the enrichment stood at 1.14 under setting [1] and 0 under setting [2].

In the case of […] (CDR3 as printed); V11L derived by comparing it with the table's wild-type CDR3 AGPMKTSYDKVI, the enrichment runs as follows: under setting [1], 0.656; under setting [2], 0.

Regarding […] (CDR3 as printed); V11S derived by comparing it with the table's wild-type CDR3 AGPMKTSYDKVI, the enrichment reads like this: under setting [1], 1.15; under setting [2], 0.

As to […] (CDR3 as printed); Y8A derived by comparing it with the table's wild-type CDR3 AGPMKTSYDKVI, the enrichment worked out at 0.451 under setting [1] and 0 under setting [2].

For the variant […] (CDR3 as printed); S7D derived by comparing it with the table's wild-type CDR3 AGPMKTSYDKVI, the enrichment under setting [1] came to 0.804 and the enrichment under setting [2] came out at 0.
